Test results taken from the supplement of paper PMC10065799, “High-throughput profiling of sequence recognition by tyrosine kinases and SH2 domains using bacterial peptide display” (eLife, 2023).

Legend:
AncSZ = experiment: phosphorylation enrichment, bacterial display (enrichment ratio); higher = better substrate or ligand; peptides without Tyr show the background
EPHB1 = EPHB1 (UniProt P54762); experiment: as above
EPHB2 = EPHB2 (UniProt P29323); experiment: as above
FGFR1 = FGFR1 (UniProt P11362); experiment: as above
FGFR1, sequence (P11362 whole entry, looked up): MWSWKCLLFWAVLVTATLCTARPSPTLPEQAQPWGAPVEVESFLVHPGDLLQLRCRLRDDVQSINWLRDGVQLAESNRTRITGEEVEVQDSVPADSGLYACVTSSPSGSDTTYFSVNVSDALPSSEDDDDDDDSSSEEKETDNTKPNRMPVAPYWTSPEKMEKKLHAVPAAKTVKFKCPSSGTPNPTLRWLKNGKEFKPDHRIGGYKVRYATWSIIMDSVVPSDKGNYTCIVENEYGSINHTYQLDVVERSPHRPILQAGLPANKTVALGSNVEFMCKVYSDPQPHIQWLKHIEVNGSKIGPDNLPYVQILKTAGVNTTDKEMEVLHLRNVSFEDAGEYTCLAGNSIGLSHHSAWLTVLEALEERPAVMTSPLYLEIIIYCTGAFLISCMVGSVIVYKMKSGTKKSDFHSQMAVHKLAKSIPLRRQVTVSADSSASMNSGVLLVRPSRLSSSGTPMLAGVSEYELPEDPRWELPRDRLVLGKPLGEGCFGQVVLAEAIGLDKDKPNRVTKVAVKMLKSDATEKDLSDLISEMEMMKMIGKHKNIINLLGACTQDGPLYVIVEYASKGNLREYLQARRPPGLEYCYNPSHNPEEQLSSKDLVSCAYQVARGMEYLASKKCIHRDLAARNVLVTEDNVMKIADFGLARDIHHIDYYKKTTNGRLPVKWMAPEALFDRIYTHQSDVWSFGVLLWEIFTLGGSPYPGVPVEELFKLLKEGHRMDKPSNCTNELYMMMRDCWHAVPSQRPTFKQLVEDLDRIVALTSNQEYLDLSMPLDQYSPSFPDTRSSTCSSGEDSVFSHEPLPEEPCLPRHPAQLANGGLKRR

FGFR3 = FGFR3 (UniProt P22607); experiment: as above
Fer (mouse) = experiment: as above
Fes = Fes (UniProt P07332); experiment: as above
Fes, sequence (P07332 whole entry, looked up): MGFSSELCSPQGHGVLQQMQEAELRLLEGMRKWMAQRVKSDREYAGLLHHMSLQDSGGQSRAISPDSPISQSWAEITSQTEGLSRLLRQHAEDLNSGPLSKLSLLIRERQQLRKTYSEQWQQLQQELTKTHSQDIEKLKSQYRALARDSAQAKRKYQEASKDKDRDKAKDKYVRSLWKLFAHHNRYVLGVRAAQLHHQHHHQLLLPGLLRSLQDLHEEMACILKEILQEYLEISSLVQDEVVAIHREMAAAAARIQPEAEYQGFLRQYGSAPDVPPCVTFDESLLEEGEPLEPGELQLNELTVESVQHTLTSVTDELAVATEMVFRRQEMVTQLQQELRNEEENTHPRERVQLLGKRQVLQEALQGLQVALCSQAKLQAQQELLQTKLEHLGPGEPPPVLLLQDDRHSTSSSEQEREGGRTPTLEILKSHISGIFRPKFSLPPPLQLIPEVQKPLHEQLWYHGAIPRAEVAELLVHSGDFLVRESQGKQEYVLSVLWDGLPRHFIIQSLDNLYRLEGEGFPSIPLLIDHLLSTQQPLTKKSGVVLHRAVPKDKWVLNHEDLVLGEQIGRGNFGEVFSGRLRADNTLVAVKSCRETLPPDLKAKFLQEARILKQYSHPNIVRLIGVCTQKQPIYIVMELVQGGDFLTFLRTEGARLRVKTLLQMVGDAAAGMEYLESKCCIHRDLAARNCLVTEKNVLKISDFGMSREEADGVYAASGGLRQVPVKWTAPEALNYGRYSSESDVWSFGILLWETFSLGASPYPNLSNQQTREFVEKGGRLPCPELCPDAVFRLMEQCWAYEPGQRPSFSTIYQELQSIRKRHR

Fyn = Fyn (UniProt P06241); experiment: as above
Hck = Hck (UniProt P08631); experiment: as above
Jak2 = Jak2 (UniProt O60674); experiment: as above
MERTK = MERTK (UniProt Q12866); experiment: as above
MERTK, sequence (Q12866 whole entry, looked up): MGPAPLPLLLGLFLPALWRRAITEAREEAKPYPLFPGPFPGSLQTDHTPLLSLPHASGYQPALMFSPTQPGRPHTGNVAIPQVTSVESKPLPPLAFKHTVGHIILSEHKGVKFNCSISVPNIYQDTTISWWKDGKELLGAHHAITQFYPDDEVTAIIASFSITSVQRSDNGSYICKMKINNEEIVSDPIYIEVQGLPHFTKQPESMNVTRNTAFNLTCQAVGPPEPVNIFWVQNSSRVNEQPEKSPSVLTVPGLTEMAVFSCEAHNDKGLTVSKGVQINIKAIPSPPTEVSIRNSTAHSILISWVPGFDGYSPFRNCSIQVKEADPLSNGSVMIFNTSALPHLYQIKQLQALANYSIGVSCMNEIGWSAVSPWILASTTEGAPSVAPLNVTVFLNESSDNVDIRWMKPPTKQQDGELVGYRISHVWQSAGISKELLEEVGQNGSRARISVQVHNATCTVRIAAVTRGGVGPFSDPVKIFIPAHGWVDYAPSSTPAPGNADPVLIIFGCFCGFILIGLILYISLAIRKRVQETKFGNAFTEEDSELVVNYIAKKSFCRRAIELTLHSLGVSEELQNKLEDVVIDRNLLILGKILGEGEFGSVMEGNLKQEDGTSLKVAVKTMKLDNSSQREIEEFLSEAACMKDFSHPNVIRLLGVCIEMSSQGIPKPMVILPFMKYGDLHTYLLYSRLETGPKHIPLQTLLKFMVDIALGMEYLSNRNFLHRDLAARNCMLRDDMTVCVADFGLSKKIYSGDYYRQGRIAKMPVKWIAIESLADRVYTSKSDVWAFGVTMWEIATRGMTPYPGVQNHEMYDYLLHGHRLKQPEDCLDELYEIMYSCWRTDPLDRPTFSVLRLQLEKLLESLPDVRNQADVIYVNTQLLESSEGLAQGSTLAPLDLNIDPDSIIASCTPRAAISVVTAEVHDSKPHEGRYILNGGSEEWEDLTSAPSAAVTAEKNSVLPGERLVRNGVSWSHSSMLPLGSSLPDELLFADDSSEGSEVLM

c-Abl (mouse) = experiment: as above
c-Src = experiment: as above
Grb2 SH2 = Grb2 SH2 (UniProt P62993); experiment: SH2 binding enrichment of the phosphorylated peptide, bacterial display (enrichment ratio); higher = better substrate or ligand; peptides without Tyr show the background
SHP2-C SH2 = experiment: as above
c-Src SH2 = experiment: as above
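Wherever SH2 binding enrichment of the phosphorylated peptide, bacterial display is given: peptide library displayed on the E. coli surface as eCPX fusions, selected cells deep-sequenced, score is each peptide's frequency after selection divided by its frequency in the input.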
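Wherever phosphorylation enrichment, bacterial display is given: 11-residue human phosphosite peptides and single-mutation variants displayed on the E. coli surface, counted by deep sequencing, each peptide's frequency after selection divided by its frequency in the unselected input library; frequency after pTyr selection over input frequency; kinase dosed for 20-30% of maximal phosphorylation in three min.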

EPHB2, sequence (P29323 whole entry, looked up): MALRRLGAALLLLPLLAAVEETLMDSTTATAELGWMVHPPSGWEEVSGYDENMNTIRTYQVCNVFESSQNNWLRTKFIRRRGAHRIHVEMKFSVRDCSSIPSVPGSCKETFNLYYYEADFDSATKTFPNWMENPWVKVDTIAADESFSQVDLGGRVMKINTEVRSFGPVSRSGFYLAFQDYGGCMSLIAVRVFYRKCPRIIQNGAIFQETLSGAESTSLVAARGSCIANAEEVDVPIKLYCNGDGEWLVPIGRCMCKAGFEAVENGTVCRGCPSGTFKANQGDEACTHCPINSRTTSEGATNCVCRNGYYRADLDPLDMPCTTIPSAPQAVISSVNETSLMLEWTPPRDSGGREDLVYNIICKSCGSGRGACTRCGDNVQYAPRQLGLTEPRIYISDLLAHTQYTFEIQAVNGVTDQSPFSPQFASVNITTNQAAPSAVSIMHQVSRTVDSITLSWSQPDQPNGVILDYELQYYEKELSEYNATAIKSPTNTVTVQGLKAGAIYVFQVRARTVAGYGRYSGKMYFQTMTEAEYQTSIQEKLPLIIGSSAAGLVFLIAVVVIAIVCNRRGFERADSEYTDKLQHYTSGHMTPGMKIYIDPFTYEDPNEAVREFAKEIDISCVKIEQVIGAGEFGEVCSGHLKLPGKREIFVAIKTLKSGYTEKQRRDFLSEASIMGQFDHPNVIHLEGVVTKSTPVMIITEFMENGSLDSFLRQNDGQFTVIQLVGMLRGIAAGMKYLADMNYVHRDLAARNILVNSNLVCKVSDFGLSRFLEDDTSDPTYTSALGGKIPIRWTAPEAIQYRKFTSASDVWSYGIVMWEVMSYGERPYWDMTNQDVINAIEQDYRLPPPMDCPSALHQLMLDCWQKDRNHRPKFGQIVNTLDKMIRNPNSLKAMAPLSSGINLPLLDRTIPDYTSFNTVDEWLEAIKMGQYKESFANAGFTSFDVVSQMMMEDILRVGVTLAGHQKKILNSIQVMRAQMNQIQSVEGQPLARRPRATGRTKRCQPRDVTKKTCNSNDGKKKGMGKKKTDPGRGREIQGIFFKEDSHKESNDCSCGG
EPHB1, sequence (P54762 whole entry, looked up): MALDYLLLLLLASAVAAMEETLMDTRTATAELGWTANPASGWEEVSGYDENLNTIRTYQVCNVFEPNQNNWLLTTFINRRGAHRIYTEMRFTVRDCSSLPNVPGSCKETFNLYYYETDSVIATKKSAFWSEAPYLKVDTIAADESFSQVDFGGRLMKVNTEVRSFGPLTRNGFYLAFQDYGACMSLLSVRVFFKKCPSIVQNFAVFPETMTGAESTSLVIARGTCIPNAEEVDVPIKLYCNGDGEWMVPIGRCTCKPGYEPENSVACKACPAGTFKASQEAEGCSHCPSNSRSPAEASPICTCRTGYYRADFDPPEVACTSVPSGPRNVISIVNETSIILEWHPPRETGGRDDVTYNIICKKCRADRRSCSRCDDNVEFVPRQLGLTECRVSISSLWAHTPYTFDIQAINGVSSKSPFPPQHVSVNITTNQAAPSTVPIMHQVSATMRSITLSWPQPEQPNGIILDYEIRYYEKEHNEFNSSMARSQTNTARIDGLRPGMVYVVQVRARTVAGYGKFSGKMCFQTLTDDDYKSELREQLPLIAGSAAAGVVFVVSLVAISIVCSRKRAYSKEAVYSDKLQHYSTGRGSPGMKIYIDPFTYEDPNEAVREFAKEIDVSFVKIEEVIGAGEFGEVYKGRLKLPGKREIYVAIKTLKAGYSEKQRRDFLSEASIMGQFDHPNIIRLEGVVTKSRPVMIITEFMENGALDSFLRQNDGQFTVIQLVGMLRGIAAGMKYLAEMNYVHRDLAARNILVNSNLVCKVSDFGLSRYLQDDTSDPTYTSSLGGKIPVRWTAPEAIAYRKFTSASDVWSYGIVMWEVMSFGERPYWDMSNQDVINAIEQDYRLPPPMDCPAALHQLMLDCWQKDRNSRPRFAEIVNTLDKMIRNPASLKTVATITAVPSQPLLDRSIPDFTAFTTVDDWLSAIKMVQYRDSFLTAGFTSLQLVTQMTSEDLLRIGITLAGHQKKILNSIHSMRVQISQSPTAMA

SH2 binding enrichment (Grb2 SH2) | SH2 binding enrichment (SHP2-C SH2) | SH2 binding enrichment (c-Src SH2) | Sequence | phosphorylation enrichment (AncSZ) | phosphorylation enrichment (EPHB1) | phosphorylation enrichment (EPHB2) | phosphorylation enrichment (FGFR1) | phosphorylation enrichment (FGFR3) | phosphorylation enrichment (Fer (mouse)) | phosphorylation enrichment (Fes) | phosphorylation enrichment (Fyn) | phosphorylation enrichment (Hck) | phosphorylation enrichment (Jak2) | phosphorylation enrichment (MERTK) | phosphorylation enrichment (c-Abl (mouse)) | phosphorylation enrichment (c-Src)
1.37 | 0.671 | 0.649 | EEEFEYMNRRR [ERBB3_Y1199_D1194E_YF] | 1.59 | 0.693 | 0.532 | 0.554 | 0.767 | 0.408 | 1.24 | 0.515 | 0.569 | 1.19 | 0.724 | 0.808 | 0.608
0.944 | 0.79 | 0.744 | EEESCYILHSS [PATJ_Y783] | 1.63 | 0.637 | 0.625 | 0.621 | 0.853 | 0.926 | 1.35 | 0.659 | 0.57 | 1.31 | 0.484 | 0.892 | 0.819
0.808 | 0.393 | 0.473 | EFGEVYKGTLK [EPHA2_Y628_M631T] | 0.603 | 0.539 | 0.409 | 0.386 | 0.426 | 0.448 | 0.549 | 0.373 | 0.398 | 0.425 | 0.362 | 0.521 | 0.376
0.947 | 0.809 | 0.617 | EFISEYCGEII [EZH2_Y641] | 1.61 | 0.901 | 0.716 | 0.604 | 1.05 | 0.678 | 1.33 | 0.692 | 0.664 | 1.05 | 0.616 | 0.905 | 0.576
1.03 | 1.03 | 0.444 | EFLRNYFTDKA [DSG2_Y775] | 1.09 | 0.572 | 0.472 | 0.569 | 0.622 | 0.573 | 1.08 | 0.48 | 0.414 | 0.962 | 0.567 | 0.764 | 0.528
0.742 | 0.528 | 0.453 | EFNINYNNEPP [THG1L_Y228_L232P] | 1.23 | 0.642 | 0.566 | 0.681 | 0.742 | 0.6 | 1.3 | 0.626 | 0.583 | 0.989 | 0.46 | 0.852 | 0.529
0.827 | 0.784 | 0.656 | EFNLMYHGTKE [IRF6_Y97_D98H] | 0.923 | 0.631 | 0.645 | 0.489 | 0.579 | 0.451 | 0.94 | 0.463 | 0.455 | 0.744 | 0.442 | 0.593 | 0.545
0.74 | 0.66 | 1.52 | EGNERYEGFCV [GRIA3_Y451_YF] | 1.12 | 0.662 | 0.515 | 0.649 | 0.697 | 0.55 | 1.15 | 0.58 | 0.554 | 1.01 | 0.431 | 0.783 | 0.479
0.731 | 0.489 | 0.57 | EGVPLYESATT [DCC_Y809] | 1.12 | 4.19 | 4.87 | 0.475 | 0.775 | 7.75 | 1.07 | 1.09 | 2.05 | 0.988 | 0.638 | 0.831 | 1.14
0.846 | 0.863 | 0.651 | EHTTLYSNNST [KANSL1_Y223] | 0.632 | 0.387 | 0.53 | 0.356 | 0.431 | 0.602 | 0.65 | 0.423 | 0.568 | 0.575 | 0.386 | 0.487 | 0.455
0.702 | 1.14 | 2.62 | EIRTQYEAMAS [GFAP_Y242] | 0.691 | 0.45 | 0.577 | 0.638 | 0.523 | 0.483 | 0.778 | 0.55 | 0.534 | 0.682 | 0.415 | 0.676 | 0.472
1.72 | 1.46 | 3.84 | EKFVPYYDLFM [IPO5_Y530] | 1.2 | 4.82 | 6.87 | 6.89 | 5.89 | 3.71 | 1.18 | 3.05 | 3.27 | 1.47 | 7.26 | 0.787 | 4.22
0.897 | 0.921 | 18.8 | EKQARYEIVEE [CDH5_Y223_V227E] | 1.2 | 0.582 | 0.565 | 0.506 | 0.798 | 0.56 | 1.24 | 0.542 | 0.667 | 1.09 | 0.644 | 0.749 | 0.521
0.905 | 0.556 | 0.536 | ELAINYQEQAS [SLC9A9_Y591] | 0.923 | 0.526 | 0.469 | 0.522 | 0.674 | 0.524 | 0.869 | 0.539 | 0.643 | 0.832 | 0.416 | 0.504 | 0.403
0.824 | 0.679 | 0.484 | ELCSEYHKSRK [SPINK5_Y440_R441H] | 0.73 | 0.405 | 0.412 | 0.513 | 0.53 | 0.507 | 1.02 | 0.487 | 0.442 | 0.945 | 0.532 | 0.999 | 0.633
0.761 | 0.395 | 0.397 | ELTSVYDSRAR [SENP1_Y349] | 0.585 | 0.35 | 0.507 | 0.491 | 0.574 | 0.432 | 0.624 | 0.697 | 1.62 | 0.592 | 0.52 | 0.557 | 1.03
0.953 | 0.82 | 0.483 | ENELTYYCCKK [CD59_Y86] | 1.57 | 0.505 | 0.97 | 2.21 | 1.22 | 0.779 | 0.955 | 1.72 | 2.47 | 1.77 | 1.08 | 1.26 | 2.74
0.887 | 1 | 0.494 | EPSVDCCVVKI [CAD_Y735_Y735C] | 1.07 | 0.449 | 0.499 | 0.432 | 0.586 | 0.411 | 1.18 | 0.336 | 0.371 | 1.01 | 0.376 | 0.816 | 0.369
0.827 | 0.738 | 0.533 | EPTPSYEVGQR [TSC2_Y1788_G1787S] | 0.726 | 0.443 | 0.426 | 0.462 | 0.581 | 0.408 | 0.895 | 0.427 | 0.486 | 0.686 | 0.383 | 0.627 | 0.428
0.981 | 0.758 | 0.578 | EPYEVYRIVPE [IRF8_Y110_K108E] | 3.39 | 1.45 | 1.9 | 4.53 | 3.35 | 8.85 | 1.15 | 6.69 | 4.62 | 0.994 | 1.05 | 1.25 | 6.54
0.966 | 0.617 | 1.3 | EQAERYDDMAA [YWHAG_Y20] | 1.22 | 0.508 | 0.51 | 0.547 | 0.737 | 0.501 | 1.03 | 0.537 | 0.501 | 0.87 | 0.407 | 0.653 | 0.426
0.996 | 0.729 | 0.606 | EQKKFYNATKK [SCN5A_Y1495_M1498T_YF] | 0.668 | 0.383 | 0.348 | 0.412 | 0.487 | 0.374 | 0.674 | 0.437 | 0.449 | 0.436 | 0.404 | 0.497 | 0.554
0.847 | 0.492 | 0.447 | ERDTVYSSSGV [NELL2_Y350_N347D] | 0.711 | 0.435 | 0.52 | 0.502 | 0.584 | 0.451 | 0.883 | 1.78 | 1.5 | 0.601 | 0.42 | 0.617 | 1.79
0.735 | 0.639 | 0.564 | EREYKYGAHKY [OAT_Y50_N54K] | 0.626 | 0.376 | 0.452 | 0.414 | 0.441 | 0.398 | 0.625 | 0.369 | 0.392 | 0.509 | 0.436 | 0.571 | 0.359
0.803 | 0.635 | 0.487 | ERIELYELDKK [PMM2_Y145_F144L] | 1.18 | 0.664 | 0.589 | 0.481 | 0.673 | 0.506 | 1.1 | 0.586 | 0.574 | 0.887 | 0.568 | 0.641 | 0.615
0.707 | 0.611 | 0.521 | ERNAHYRTPKI [PTK2B_Y699_R698H] | 0.586 | 0.583 | 0.561 | 0.524 | 0.473 | 0.424 | 0.495 | 0.367 | 0.332 | 0.559 | 0.37 | 0.615 | 0.387
0.599 | 0.71 | 0.428 | ERNARYRTPKI [PTK2B_Y699] | 0.562 | 0.314 | 0.276 | 0.316 | 0.369 | 0.313 | 0.515 | 0.33 | 0.351 | 0.409 | 0.697 | 0.527 | 0.351
0.836 | 0.594 | 0.451 | ERTIEYLEEVV [HADHA_Y239_A244V] | 1.18 | 0.559 | 0.615 | 0.55 | 0.712 | 0.523 | 1.17 | 0.466 | 0.498 | 1.07 | 0.386 | 0.739 | 0.487
0.895 | 0.842 | 0.56 | ESFCLYPPVPQ [CYP4B1_Y377_R375C] | 0.874 | 0.805 | 0.595 | 0.539 | 0.647 | 0.582 | 1.12 | 0.459 | 0.484 | 0.906 | 0.447 | 0.739 | 0.477
